In US20180022822A1, “NOVEL ANTI-FIBROBLAST ACTIVATION PROTEIN (FAP) BINDING AGENTS AND USES THEREOF” (Mabimmune Diagnostics AG, priority 2016, published 2018):

Tests used:
[1] = system: human breast cancer tissue sections; experiment: immunohistochemistry on human breast cancer tissue sections; details: chimeric form with murine constant domain, 10 μg/mL, DAB
Experimental: Human breast cancer tissue sections were allowed to dry for 10 min at room temperature, and then fixed for 15 minutes in 4% paraformaldahyde, followed by washing three times 5 minutes in PBS. Slides were then incubated for 5 min in 0.3% H2O2 in PBS to block endogenous peroxidase activity, and subsequently washed 3 times 5 min in PBS. Endogenous biotin was then blocked using the Biotin-Blocking System (DAKO X0590), followed by times washing with PBS. Blocking of unspecific antibody binding and permeabilization of the tissue section was performed using blocking buffer (5% goat serum, 5% horse serum, 0.3M glycine, 5% BSA, and 0.5% Triton X100 in PBS). Tissue sections were then stained with a recombinantly engineered chimeric form of NI-206.82C2 with a murine constant domain and the human variable domain of the original antibody and a matched isotype control (43A11) at 10 μg/mL in permeabilization buffer overnight at 4° C. Following three PBS washing steps, the sections were incubated with a biotinylated goat anti-mouse antibody for 1 h at room temperature. For amplifying the target antigen the VECTASTAIN ABC kit (Vector Labs) was used, followed by development with 3,3′-diaminobenzidine (DAB) and counterstained with Mayer's haematoxylin blue. […]

[2] = biological target: T1, active recombinant human FAP (Homo sapiens, UniProt Q12884); experiment: DQ-gelatin cleavage inhibition, active recombinant human FAP; type: biochemical
T1 construct: purchased Sino Biologicals 10464-H07H
T1 sequence (Q12884 26-760 limits assumed): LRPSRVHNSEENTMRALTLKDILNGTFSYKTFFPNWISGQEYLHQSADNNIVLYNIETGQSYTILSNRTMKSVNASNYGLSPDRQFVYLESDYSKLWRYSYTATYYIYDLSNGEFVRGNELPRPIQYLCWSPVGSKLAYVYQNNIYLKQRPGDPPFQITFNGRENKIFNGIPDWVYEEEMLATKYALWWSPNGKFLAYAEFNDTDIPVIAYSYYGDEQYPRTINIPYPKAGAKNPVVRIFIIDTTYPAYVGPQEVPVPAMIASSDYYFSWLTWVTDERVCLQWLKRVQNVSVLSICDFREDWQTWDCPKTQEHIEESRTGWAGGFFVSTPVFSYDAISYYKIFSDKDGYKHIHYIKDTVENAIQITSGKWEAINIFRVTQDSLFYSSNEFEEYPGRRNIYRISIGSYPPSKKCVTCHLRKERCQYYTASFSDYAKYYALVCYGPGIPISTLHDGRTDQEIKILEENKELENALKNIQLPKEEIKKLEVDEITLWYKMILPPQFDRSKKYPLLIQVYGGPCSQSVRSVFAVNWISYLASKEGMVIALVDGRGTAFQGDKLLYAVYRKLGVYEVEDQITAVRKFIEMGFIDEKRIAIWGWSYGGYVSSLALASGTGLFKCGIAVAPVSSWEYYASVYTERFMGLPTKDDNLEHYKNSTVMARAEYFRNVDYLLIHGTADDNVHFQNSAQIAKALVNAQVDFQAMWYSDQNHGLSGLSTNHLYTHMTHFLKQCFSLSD
Experimental: A black flat bottom standard 96-well ELISA plate was blocked for 1 hour at 37° C. using sterile blocking buffer: 5% bovine serum albumin (BSA) in phosphate buffered saline (PBS). The blocking buffer was removed and replaced with: 40 μL of fresh blocking buffer, 40 μL of antibody in PBS, 10 μL of 20 nM active recombinant human FAP (Sino Biologicals, 10464-H07H) in PBS, and 10 μL of DQ-Gelatin (Molecular Probes, D-12054) in PBS. Fluorescence intensity was measured at 485 nm excitation and 530 nm emission every 3 min over a total time of 45 min, while gently shaking the plate for twenty seconds before every measurement. To calculate the fractional activity, the steady state velocity (Δ 530 nm emission/Δ time) […].
To determine the inhibitory ability of NI-206.82C2 against active recombinant human FAP (Sino Biologicals, 10464-H07H) a black 96 well ELISA plate was blocked for 1 h at 37° C. with sterile 5% BSA in PBS. After removing the blocking solution, 40 uL of 12.5% BSA in PBS was added to each well. Then FAP-targeting agents (NI-206.82C2, F19, and Val-Boro-Pro (PT-100; Point therapeutics)) were added to the appropriate wells for a final concentration of 500, 10, 3.03, 1.01, 0.031, 0.001, and 0 nM. 10 uL of active recombinant human FAP was then added to all the wells for a final assay concentration of 20 nM. […]

[3] = system: CT-26 syngeneic liver metastasis; experiment: immunofluorescence on murine CT-26 colorectal cancer tissue sections; set-up: species or system mouse; details: Cy5 labelled antibody, 10 μg/mL
Experimental: NI-206.82C2 was prelabelled with Cyanine 5 antibody labeling kit (Innova Biosciences, 342-0010), and sufficient antibody labelling was validated with a photospectrometer. Cryosections of mouse livers containing syngeneic CT-26 liver metastasis were allowed to dry for 30 min at room temperature the fixed for 10 min in 4% formalin in PBS. Slides were then washed 3 times for 5 minutes in PBS and blocked for 1 hr at room temperature with 5% bovine serum albumin in PBS.
The slides were then incubated overnight at 4° C. with staining solution containing DAPI at 0.5 μg/mL, and Alexa 547 phalloidin (Invitrogen) according to the manufacturer's instructions, and either Cy5 labelled NI-206.82C2 or a Cy5 labelled isotype-matched control antibody 3A1 at a concentration of 10 μg/mL, in blocking solution with 0.5% Triton X100. Slides were then washed 3 times in PBS, mounted in Lisbeth's mounting medium, and imaged with an SP8 confocal microscope (Leica Microsystems).

[4] = system: human invasive ductal carcinoma and invasive lobular carcinoma sections; experiment: confocal immunofluorescence on human carcinoma cryosections; details: Cy3 labelled antibody
Experimental: NI-206.82C2 was labelled with Cyanine 3 for fluorescent imaging (Cy3 conjugation kit: Innova Biosciences, 340-0030) and antibody labelling was validated using a spectophotometer. Cryosections from human invasive ductal carcinoma tissues (FIG. 9, A) and invasive lobular carcinoma (FIG. 9, B) were fixed for 5 minutes in ice cold acetone and allowed to dry for 10 minutes before washing in PBS. The sections were then incubated for 1 hr at room temperature in 5% BSA in PBS. The tissue sections were then incubated with Cyanine 3 prelabelled antibodies overnight at 4° C., and then washed three times in PBS before incubation with DAPI at 0.5 μg/mL. Sections were then washed three additional times in PBS and mounted in Lisbeth's mounting medium before imaging on a SP8 confocal microscope (Leica Microsystems).

- potency for inhibiting active recombinant human FAP compared to Val-boro-Pro and F19 [2]: higher potency
- binding to human invasive ductal and invasive lobular carcinoma sections [4]: specifically binds
B1: NI-206.82C2: human-derived recombinant anti-FAP antibody; VH SEQ ID NO: 2 or 4 (PIMC), VL SEQ ID NO: 6 (antibody, V domains shown)
VH: QVQLQQSGPGLVKPSQTLSLTCAISGDSVSSNSVTWNWIRQSPSRGLEWLGRTYYRSKWYNDYAVSVKGRITINPDTSKNQFYLQLKSVTPEDAAVYYCARDSSILYGDYWGQGTLVTVSS
VL: QAVLTQPSSLSASPGASASLTCTLPSGINVGTYRIFWFQQKPGSPPQYLLSYKSDSDNHQGSGVPSRFSGSKDASANAGILLISGLQSEDEADYYCMIWHSSAWVFGGGTKLTVL
- staining of human ductal carcinoma in-situ tissue [1]: Positive staining
- staining of human invasive ductal carcinoma tissue [1]: Positive staining
- staining of murine CT-26 liver metastasis sections [3]: found around the perimeter
